Here are results for 13 molecules from patent US10705101B2, “Determination of the unbound free fatty acid profiles in biological and industrial specimens” (priority 2013, dated 2020).

Changes are numbered by the printed parent chain. In names and notes the source's numbering stands.

The nature of the assay: Probe response profile / specificity for different FFAu at 1 nM. The format is binding. Particulars: FFAu giving the largest response to 1 nM of each FFAu; several listed in order of degree of specificity. From the text:
The abbreviations are: arachidonate (AA), docosahexaenoate (DHA), eicosapentaenoate (EPA), laurate (LAU), linoleate (LA), linolenate (LNA), myristate (MA), oleate (OA), palmitate (PA), palmitoleate (POA), stearate (SA), and vaccenate (VA).
Examples of probes used, generally in groups of 10 or more, to determine FFAu profiles in biological samples such as blood plasma or serum from animals and humans or media from microorganisms are shown in Table 2. In the sequences presented in Table 2 and the sequence listing, amino acids are numbered from the first residue of the mature protein. The initiator methionine residue of the wild-type protein is removed by aminopeptidase activity, leaving an alanine as residue 1. Thus, counting backwards and skipping 0, the initiator methionine is at residue position −1. Specificity indicates the FFAu that gives the largest response to 1 nM of each FFAu when one FFAu dominates the profile and more than one when there is a more even distribution of specificity. Where more than one is indicated they are listed in order of degree of specificity. The abbreviations are: arachidonate (AA), docosahexaenoate (DHA), eicosapentaenoate (EPA), laurate (LAU), linoleate (LA), linolenate (LNA), myristate (MA), oleate (OA), palmitate (PA), palmitoleate (POA), stearate (SA), and vacsinate (VA). The sequences indicate mutations relative to SEQ ID NO: 1. This sequence is a mutated rat intestinal fatty acid binding protein with a Glu 131 to Asp substitution and includes a COOH-terminal affininity tag comprising […], Gly 133 and 6 histidines.
The response profile is the fluorescence change as evaluated as (R−Ro)/Ro (ΔR/Ro) for each FFAu added as a complex of the FFA and albumin so that the FFAu concentration is clamped or buffered at 1 nM for every FFAu for which a calibration has been performed. The calculation is performed simply by rearranging equation 2 to solve for ΔR/Ro. […] However all the probes have different profiles and therefore complementary specificities for different FFAu. Abbreviations are as in Table 2.

B1: L33P3 F9: acrylodan-labeled mutant FABP probe: M18L, I23L, G31N, L72W, A73T, D74A, R106A, Q115E, Y117V (protein, UniProt P02693 2-132, looked up, variant M18L I23L G31N L72W A73T D74A R106A Q115E Y117V)
Fatty acid-binding protein, …: AFDGTWKVDRNENYEKFLEKMGLNVVKRKLNAHDNLKLTITQEGNKFTVKESSNFRNIDVVFELGVDFAYSWTAGTELTGTWTMEGNKLVGKFKRVDNGKELIAVAEISGNELIETVTYEGVEAKRIFKKE
modifications: acrylodan label
notes: acrylodan-labeled mutant FABP probe: M18L, I23L, G31N, L72W, A73T, D74A, R106A, Q115E, Y117V
With B1, the Specificity entry is “DHA/AA”.

B2: L50BP4 E2: acrylodan-labeled mutant FABP probe: M18L, M21F, I23F, K27C, G31N, L72T, A73T, D74A, T76F (protein, UniProt P02693 2-132, looked up, variant M18L M21F I23F K27C G31N L72T A73T D74A T76F)
Fatty acid-binding protein, …: B1 Fatty acid-binding protein, … with M21F, L23F, K27C, W72T, T76F, A106R, E115Q, V117Y
modifications: acrylodan label
notes: acrylodan-labeled mutant FABP probe: M18L, M21F, I23F, K27C, G31N, L72T, A73T, D74A, T76F
As for B2, the Specificity entry is “PA/MA”.

B3: L36P15 B7-1: acrylodan-labeled mutant FABP probe: M18L, I23V, G31N, F55R, L72W, A73T, D74A, R106A, Q115E, Y117V (protein, UniProt P02693 2-132, looked up, variant M18L I23V G31N F55R L72W A73T D74A R106A Q115E Y117V)
Fatty acid-binding protein, …: B1 Fatty acid-binding protein, … with L23V, F55R
modifications: acrylodan label
notes: acrylodan-labeled mutant FABP probe: M18L, I23V, G31N, F55R, L72W, A73T, D74A, R106A, Q115E, Y117V
Consider B3, for which the Specificity result was “HA/AA/EPA”.

B4: L44P1 C10: acrylodan-labeled mutant FABP probe: Y14L, M18L, I23L, G31N, L72G, A73T, D74A, R106W, Q115W, Y117L (protein, UniProt P02693 2-132, looked up, variant Y14L M18L I23L G31N L72G A73T D74A R106W Q115W Y117L)
Fatty acid-binding protein, …: B1 Fatty acid-binding protein, … with Y14L, W72G, A106W, E115W, V117L
modifications: acrylodan label
notes: acrylodan-labeled mutant FABP probe: Y14L, M18L, I23L, G31N, L72G, A73T, D74A, R106W, Q115W, Y117L
With B4, the Specificity result is given as “PA/OA/SA”.

B5: L35P10C4: acrylodan-labeled mutant FABP probe: M18L, G31N, L36Y, L72W, A73T, D74A, R106A, Q115E, Y117V (protein, UniProt P02693 2-132, looked up, variant M18L G31N L36Y L72W A73T D74A R106A Q115E Y117V)
Fatty acid-binding protein, …: B1 Fatty acid-binding protein, … with L23I, L36Y
modifications: acrylodan label
notes: acrylodan-labeled mutant FABP probe: M18L, G31N, L36Y, L72W, A73T, D74A, R106A, Q115E, Y117V
Turning to B5, the Specificity result was “DHA/AA”.

B6: L37P1 C3: acrylodan-labeled mutant FABP probe: Y14W, M18L, M21I, I23L, G31N, L38V, L72W, A73T, D74A, R106A, Q115E, Y117V (protein, UniProt P02693 2-132, looked up, variant Y14W M18L M21I I23L G31N L38V L72W A73T D74A R106A Q115E Y117V)
Fatty acid-binding protein, …: B1 Fatty acid-binding protein, … with Y14W, M21I, L38V
modifications: acrylodan label
notes: acrylodan-labeled mutant FABP probe: Y14W, M18L, M21I, I23L, G31N, L38V, L72W, A73T, D74A, R106A, Q115E, Y117V
For B6, the Specificity result was “AA/DHA/EPA”.

B7: L50BP9 D5: acrylodan-labeled mutant FABP probe: M18L, M21F, I23L, K27C, G31N, L72S, A73T, D74A, T76I, Y117N (protein, UniProt P02693 2-132, looked up, variant M18L M21F I23L K27C G31N L72S A73T D74A T76I Y117N)
Fatty acid-binding protein, …: B1 Fatty acid-binding protein, … with M21F, K27C, W72S, T76I, A106R, E115Q, V117N
modifications: acrylodan label
notes: acrylodan-labeled mutant FABP probe: M18L, M21F, I23L, K27C, G31N, L72S, A73T, D74A, T76I, Y117N
With B7, the Specificity result is listed as “PA/POA/MA”.

B8: L35P22E8: acrylodan-labeled mutant FABP probe: M18L, I23L, G31N, L36R, L38V, L72W, A73T, D74A, R106A, Q115E, Y117V (protein, UniProt P02693 2-132, looked up, variant M18L I23L G31N L36R L38V L72W A73T D74A R106A Q115E Y117V)
Fatty acid-binding protein, …: B1 Fatty acid-binding protein, … with L36R, L38V
modifications: acrylodan label
notes: acrylodan-labeled mutant FABP probe: M18L, I23L, G31N, L36R, L38V, L72W, A73T, D74A, R106A, Q115E, Y117V
Consider B8, for which the Specificity result was “DHA/AA”.

B9: L128P18 A7: acrylodan-labeled mutant FABP probe: Y14W, M18L, M21I, I23L, K27C, G31G, L38V, S71M, L72W, A73T, D74P, A104I, R106A, Q115E, Y117V (protein, UniProt P02693 2-132, looked up, variant Y14W M18L M21I I23L K27C G31G L38V S71M L72W A73T D74P A104I R106A Q115E Y117V)
Fatty acid-binding protein, …: B1 Fatty acid-binding protein, … with Y14W, M21I, K27C, N31G, L38V, S71M, A74P, A104I
modifications: acrylodan label
notes: acrylodan-labeled mutant FABP probe: Y14W, M18L, M21I, I23L, K27C, G31G, L38V, S71M, L72W, A73T, D74P, A104I, R106A, Q115E, Y117V
On to B9, for which the Specificity entry is “DHA/AA”.

B10: L76P9 E4: acrylodan-labeled mutant FABP probe: Y14L, M18Y, I23T, K27L, L30C, G31I, L72G, A73I, D74A, L78V, W82P, G91S, F93M, A104F, R106L, Y117L, Q115A (protein, UniProt P02693 2-132, looked up, variant Y14L M18Y I23T K27L L30C G31I L72G A73I D74A L78V W82P G91S F93M A104F R106L Y117L Q115A)
Fatty acid-binding protein, …: AFDGTWKVDRNENLEKFYEKMGTNVVLRKCIAHDNLKLTITQEGNKFTVKESSNFRNIDVVFELGVDFAYSGIAGTEVTGTPTMEGNKLVSKMKRVDNGKELIFVLEISGNELIATLTYEGVEAKRIFKKE
modifications: acrylodan label
notes: acrylodan-labeled mutant FABP probe: Y14L, M18Y, I23T, K27L, L30C, G31I, L72G, A73I, D74A, L78V, W82P, G91S, F93M, A104F, R106L, Y117L, Q115A
In the case of B10, the Specificity entry was “OA/VA/SA/LA”.

B11: L9BP6 H3: acrylodan-labeled mutant FABP probe: L38Y, F62W, L72A, Y117A (protein, UniProt P02693 2-132, looked up, variant L38Y F62W L72A Y117A)
Fatty acid-binding protein, …: AFDGTWKVDRNENYEKFMEKMGINVVKRKLGAHDNLKYTITQEGNKFTVKESSNFRNIDVVWELGVDFAYSAADGTELTGTWTMEGNKLVGKFKRVDNGKELIAVREISGNELIQTATYEGVEAKRIFKKE
modifications: acrylodan label
notes: acrylodan-labeled mutant FABP probe: L38Y, F62W, L72A, Y117A
For the molecule B11, the Specificity result is on record as “SA/OA/PA”.

B12: L10P7 A4: acrylodan-labeled mutant FABP probe: Y14L, M18L, G31Y, A73L, Y117A (protein, UniProt P02693 2-132, looked up, variant Y14L M18L G31Y A73L Y117A)
Fatty acid-binding protein, …: B11 Fatty acid-binding protein, … with Y14L, M18L, G31Y, Y38L, W62F, A72L, A73L
modifications: acrylodan label
notes: acrylodan-labeled mutant FABP probe: Y14L, M18L, G31Y, A73L, Y117A
B12: the Specificity result was “AA/DHA/OA/EPA/LA”.

B13: L118P4 H5: acrylodan-labeled mutant FABP probe: Y14W, M18Q, K27C, L72A, D74Q, R106W (protein, UniProt P02693 2-132, looked up, variant Y14W M18Q K27C L72A D74Q R106W)
Fatty acid-binding protein, …: B11 Fatty acid-binding protein, … with Y14W, M18Q, K27C, Y38L, W62F, D74Q, R106W, A117Y
modifications: acrylodan label
notes: acrylodan-labeled mutant FABP probe: Y14W, M18Q, K27C, L72A, D74Q, R106W
Regarding B13, the Specificity entry was “DHA”.
